Results published in paper PMC9572316, “Ultrathin Covalent Organic Framework Nanosheets/Ti3C2Tx-Based Photoelectrochemical Biosensor for Efficient Detection of Prostate-Specific Antigen”.

Target: prostate-specific antigen (PSA) (UniProt P07288 25-261)
Experiment: photoelectrochemical aptasensor (aptamer immobilized on TTPA-CONs/Ti3C2Tx/GCE); 10 ng/mL PSA; photocurrent falls from 3.6 to 1.8 uA after PSA; BSA-blocked electrode; PSA incubated 120 min at 4 °C on BSA-blocked aptamer electrode; photocurrent in 0.1 M phosphate buffer pH 7.4, room temperature, no bias (Section 2.3 states Tris-HCl pH 7.4 as optimum)
Settings: protein: commercial

prostate-specific antigen (PSA), sequence (P07288 25-261): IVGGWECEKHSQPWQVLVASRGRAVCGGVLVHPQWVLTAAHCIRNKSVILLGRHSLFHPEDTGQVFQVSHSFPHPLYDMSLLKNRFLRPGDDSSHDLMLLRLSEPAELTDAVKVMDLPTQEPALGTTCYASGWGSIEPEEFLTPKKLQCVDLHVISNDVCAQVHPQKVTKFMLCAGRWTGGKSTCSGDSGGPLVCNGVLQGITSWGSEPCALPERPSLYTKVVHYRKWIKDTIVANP

B1: PSA aptamer (NH2-C6) (ssDNA)
DNA: ATTAAAGCTCGCCATCAAATAGC
modifications: 5'-NH2-C6
B1: binds.
